The values that follow come from patent publication US20200270335A1.

The assay deals with LRP6 of Super TopFlash (STF, HEK293) cells (UniProt O75581). Nature of the assay: cell-based or functional assay.
Chain of LRP6 of Super TopFlash (STF, HEK293) cells (O75581 20-1613 limits assumed): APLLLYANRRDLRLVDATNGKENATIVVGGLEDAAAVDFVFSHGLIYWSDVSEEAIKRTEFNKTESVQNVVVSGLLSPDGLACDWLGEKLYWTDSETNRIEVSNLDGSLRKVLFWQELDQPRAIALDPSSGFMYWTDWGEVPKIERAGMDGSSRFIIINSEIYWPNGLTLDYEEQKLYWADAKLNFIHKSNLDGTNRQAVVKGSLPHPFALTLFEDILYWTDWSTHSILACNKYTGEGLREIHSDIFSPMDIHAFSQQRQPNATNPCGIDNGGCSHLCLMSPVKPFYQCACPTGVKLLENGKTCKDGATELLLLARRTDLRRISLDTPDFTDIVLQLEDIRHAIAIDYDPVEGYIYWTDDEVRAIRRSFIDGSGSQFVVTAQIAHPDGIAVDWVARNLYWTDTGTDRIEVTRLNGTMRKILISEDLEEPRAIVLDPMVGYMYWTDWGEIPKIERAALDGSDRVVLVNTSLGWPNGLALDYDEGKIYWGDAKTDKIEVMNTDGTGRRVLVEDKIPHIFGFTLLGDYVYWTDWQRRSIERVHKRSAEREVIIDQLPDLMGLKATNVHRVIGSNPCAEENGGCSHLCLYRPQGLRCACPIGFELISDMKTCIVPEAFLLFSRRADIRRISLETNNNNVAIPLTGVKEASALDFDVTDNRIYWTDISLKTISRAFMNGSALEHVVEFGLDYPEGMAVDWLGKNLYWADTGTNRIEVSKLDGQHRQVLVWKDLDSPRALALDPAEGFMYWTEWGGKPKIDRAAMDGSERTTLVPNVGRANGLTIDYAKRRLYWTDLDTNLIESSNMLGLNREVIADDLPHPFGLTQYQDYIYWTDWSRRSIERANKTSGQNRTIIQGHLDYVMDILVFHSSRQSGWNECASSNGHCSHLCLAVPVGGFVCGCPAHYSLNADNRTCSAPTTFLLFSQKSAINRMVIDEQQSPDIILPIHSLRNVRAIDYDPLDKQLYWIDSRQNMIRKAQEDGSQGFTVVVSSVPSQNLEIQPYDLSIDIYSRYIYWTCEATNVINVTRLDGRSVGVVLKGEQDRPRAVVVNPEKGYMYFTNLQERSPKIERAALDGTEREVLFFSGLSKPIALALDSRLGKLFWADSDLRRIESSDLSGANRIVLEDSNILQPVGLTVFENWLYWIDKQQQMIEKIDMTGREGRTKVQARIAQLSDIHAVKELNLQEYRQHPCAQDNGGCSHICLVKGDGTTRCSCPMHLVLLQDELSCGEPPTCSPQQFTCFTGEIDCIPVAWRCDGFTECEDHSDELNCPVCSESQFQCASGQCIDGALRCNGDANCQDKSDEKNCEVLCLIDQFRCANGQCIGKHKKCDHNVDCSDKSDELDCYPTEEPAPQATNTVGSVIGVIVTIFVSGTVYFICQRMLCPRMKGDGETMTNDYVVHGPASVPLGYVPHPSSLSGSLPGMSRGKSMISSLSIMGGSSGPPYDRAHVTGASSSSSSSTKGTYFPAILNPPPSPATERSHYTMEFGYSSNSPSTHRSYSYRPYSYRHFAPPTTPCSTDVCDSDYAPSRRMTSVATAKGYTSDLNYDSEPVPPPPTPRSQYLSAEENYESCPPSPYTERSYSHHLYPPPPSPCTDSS

“ACE 448 HSA-DKK2 full length (C1+C2) (from UniProt P02768 25-609; Q9UBU2 34-259) (ligand)”: the activity in the Super Top Flash assay against the HSA-DKK2 C2 proteins came to 10 fold.
